Test results as given in patent publication US20230212266A1 (FRED HUTCHINSON CANCER CENTER, published 2023).
Numbering of substitutions follows the chain as printed.

Columns and labels:
[1] = biological target: T1, SARS-CoV-2 receptor binding domain (RBD) (SARS-CoV-2, UniProt P0DTC2 319-591); experiment: BLI; mAb loaded on anti-human Fc probe, dipped in antigen
[2] = biological target: T1, SARS-CoV-2 receptor binding domain (RBD); experiment: BLI: mAb on anti-human Fc probe, dipped in the antigen
[3] = biological target: T1, SARS-CoV-2 receptor binding domain (RBD); experiment: as above; remark: listed apart in the source
[4] = biological target: T1, SARS-CoV-2 receptor binding domain (RBD); experiment: as above; remark: listed apart in the source
[5] = biological target: T1, SARS-CoV-2 receptor binding domain (RBD); experiment: as above; remark: listed apart in the source
[6] = biological target: T1, SARS-CoV-2 receptor binding domain (RBD); experiment: as above; remark: listed apart in the source
[7] = biological target: T1, SARS-CoV-2 receptor binding domain (RBD); experiment: BLI, mAb on anti-human Fc probe, antigen in solution
[8] = biological target: T1, SARS-CoV-2 receptor binding domain (RBD); experiment: BLI: mAb on anti-human Fc probe, dipped in the antigen; remark: listed apart in the source
[9] = biological target: T1, SARS-CoV-2 receptor binding domain (RBD); experiment: as above; remark: listed apart in the source
[10] = biological target: T1, SARS-CoV-2 receptor binding domain (RBD); experiment: as above; remark: listed apart in the source
[11] = biological target: T1, SARS-CoV-2 receptor binding domain (RBD); experiment: as above; remark: listed apart in the source
[12] = biological target: T1, SARS-CoV-2 receptor binding domain (RBD); experiment: BLI, mAb on anti-human Fc probe, antigen in solution; remark: listed apart in the source

B1: CV2-66 (antibody, V domains shown)
VH: EVQLVESGGGLVQPGRSLRLSCTASGFTFGDYAMSWFRQAPGKGLEWVGFIRSKAYGGTTEYAASVKGRFTISRDDSKSIAYLQMNSLKTEDTAVYYCTRVHHCSGGSCYGYYFDYWGQGTLVTVSS
VL: EIVMTQSPATLSVSPGERATLSCRASQSVSSNLAWYQQKPGQAPRLLIYGASTRATGIPARFSGSGSGTEFTLTISSLQSEDFAVYYCQQYNNWVTFGGGTKVEIK
Q: Does B1 bind [1]?
A: binds

B2: CV2-75 (antibody, V domains shown)
VH: QVQLQESGPGLVKPSETLSLTCTVSGGSISSYYWSWIRQPPGKGLEWIGYVYYSGSTNYNPSLKSRVTISVDTSKNEFSLKLSSVTAADTAVYYCASSQRPDGNLYYFDYWGQGTLVTVSS
VL: SYVLTQPPSVSVAPGQTARITCGGNNIGSKTVHWYQQKPGQAPVLVVYDDSDRPSGIPERFSGSNSGNTATLTISRVEAGDEADYYCQVWDSSSDHYVFGTGTKVTVL
Q: Does B2 bind [1]?
A: binds

B3: CV2-41 (antibody, V domains shown)
VH: QVQLQQWGAGLLKPSETLSLTCAVYGGSFSGYYWSWIRQPPGKGLEWIGEINHSGSTNYNPSLKSRVTISVDTSTNQFSLKLSSVTAADTAVYYCARRVHYDILTGFYGGALITRAFDIWGQGTMVTVSS
VL: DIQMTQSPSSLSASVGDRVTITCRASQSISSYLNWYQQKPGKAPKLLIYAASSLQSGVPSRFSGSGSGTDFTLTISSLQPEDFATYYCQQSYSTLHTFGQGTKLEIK
Q: Does B3 bind [1]?
A: binds

B4: CV30 (antibody, V domains shown)
VH: EVQLVESGGGLIQPGGSLRLSCAASGVIVSSNYMSWVRQAPGKGLEWVSVIYSGGSTYYADSVKGRFTISRDNSKNTLYLQMNSLRAEDTAVYYCARDLDVSGGMDVWGQGTTVTVSS
VL: not shown
Q: Does B4 bind [1]?
A: binds

B5: CV2-58 (antibody, V domains shown)
VH: QVQLVQSGAEVKKPGSSVKVSCKASGGTFSSYAISWVRQAPGQGLEWMGRIIPILDITNYAQKFQGRVTITADKSTSTAYMELSSLRSEDTAVYYCARGLWRSSIAGLHVPYGMDVWGQGTTVTVSS
VL: QSVLTQPPSVSAAPGQKVTISCSGSSSNIGNNYVSWYQQLPGTAPQLLIYDNNKRPSRIPDRFSGSKSGTSATLGITGLQTGDEAVYYCGTWDSSLSAVVFGGGTKLTVL
Q: Does B5 bind [2]?
A: no binding

B6: CV2-59 (antibody, V domains shown)
VH: QVQLVQSGAEVKKPGASVKVSCKVSGYTLTELSMHWVRQAPGKGLEWMGGFDPEDGETIYAQKFQGRVTMTEDTSTDTAYMELSSLRSEDTAVYYCATGPTVTTVTNWFDPWGQGTLVTVSS
VL: B5 VL with Q46K, R58G, V86D, V99E, G103T, L107V
Q: Does B6 bind [3]?
A: no binding

B7: CV2-60 (antibody, V domains shown)
VH: QVQLVQSGAEVKKPGASVKVSCKASGYNFISYGISWVRQAPGQGLEWMGWISAYNGNTNYAQKLQGRVTMTTDTSTSTAYMELRSLRSDDTAVYYCARVRIFGVVIIVDTAMVLDYWGQGTLVTVSS
VL: B5 VL with Q46K, D51E, R58G, V86D, V99G
Q: Does B7 bind [4]?
A: no binding

B8: CV2-52 (antibody, V domains shown)
VH: QVQLVESGGGVVQPGRSLRLSCAASGFTFSSYAMHWVRQAPGKGLEWVAVISYDGINKYYADSVKGRFTISRDSSKNTLYLQMNSLRAEDTAVYYCARGGVGYQLLFGNDWFDPWGQGTLVTVSS
VL: QSALTQPASVSGSPGQSITISCTGTSSDVGGYNYVSWYQQHPGKAPKLMIYEVSNRPSGVSNRFSGSKSGNTASLTISGLQAEDESDYYCSSYTTSSTLYVFGTGTKVTVL
Q: Does B8 bind [5]?
A: no binding

B9: CV5 (antibody, V domains shown)
VH: QVQLVQSGAEVKKPGASVKVTCKASGYTFTSYYLHWVRQAPGQGLEWMGIINPSGGTTSYAQKFQGRVTMTRDTSTSTVYMELSSLRSEDTAVYYCARAGRRYSSSDDGAFDIWGQGTMVTVSS
VL: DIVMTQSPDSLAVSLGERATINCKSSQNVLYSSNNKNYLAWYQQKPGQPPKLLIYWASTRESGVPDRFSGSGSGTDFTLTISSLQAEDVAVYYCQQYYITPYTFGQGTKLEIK
Q: Does B9 bind [1]?
A: binds

B10: CV2-48 (antibody, V domains shown)
VH: QLQLQESGPGLVKPSETLSLTCTVSGGSISSSSYYWGWIRQPPGKGLEWIGNIYYSGITYYNPSLKSRVTISVDTSKNQFSLKLSSVTAADTAVYYCARQLWGYYDSSGYYAFDIWGQGTMVTVSS
VL: QSALTQPASVSGSPGQSITISCTGTSSDVGSYNLVSWYQQHPGKAPKLMIYEGSKRPSGVSNRFSGSKSGNTASLTISGLQAEDEAAYYCCSYVGSSTYVVFGGGTKLTVL
Q: Does B10 bind [6]?
A: binds

B11: CV43 (antibody, V domains shown)
VH: QVQLVESGGGVVQPGRSLRLSCAASGFTFSSYAMHWVRQAPGKGLEWVAVISYDGSNKYYADSVKGRFTISRDNSKNTLYLQMNSLRAEDTAVYYCARVTVVHFDYWGQGTLVTVSS
VL: NFMLTQPHSVSESPGKTVTISCTGSSGSIASNYVQWYQQRPGSAPTTVIYEDNQRPSGVPDRFSGSIDSSSNSASLTISGLKTEDEADYYCQSYDSSNWVFGGGTKLTVL
Q: Does B11 bind [1]?
A: binds

B12: CV2-7 (antibody, V domains shown)
VH: EVQLVQSGAEVKKPGESLKISCKGSGNSFTSYWIGWVRQMPGKGLEWMGIIYPGDSDTRYSPSFQGQVTISADKSISTAYLQWSSLKASDTAMYYCARHRNYDILTGYRYYFDYWGQGTLVTVSS
VL: not shown
Q: Does B12 bind [1]?
A: binds

B13: CV2-65 (antibody, V domains shown)
VH: QVQLQESGPGLVKPSETLSLTCTVSGGSISSYYWSWIRQPAGKGLEWIGRIYTSGSTNYNPSLKSRVTMSVDTSKNQFSLKLSSVTAADTAVYYCAREDSYGSGSTGAFDIWGQGTMVTVSS
VL: SYELTQPPSVSVSPGQTARITCSGDALPKQYAYWYQQKPGQAPVLVIYKDSERPSGIPERFSGSSSGTTVTLTISGVQAEDEADYYCQSADSSGTYVFGTGTKVTVL
Q: Does B13 bind [1]?
A: binds

B14: CV11 (antibody, V domains shown)
VH: QVQLQESGPGLVKPSQTLSLTCTVSGGSISSGGYYWSWIRQHPGKGLEWIGYIYYSGSTYYNPSLKSRVTISVDTSKNQFSLKLSSVTAADTAVYYCARETTGHFDYWGQGTLVTVSS
VL: EIVLTQSPATLSLSPGERATLSCRASQSVSSYLAWYQQKPGQAPRLLIYDASNRATGIPARFSGSGSGTDFTLTISSLEPEDFAVYYCQQRSNWPPIFTFGPGTKVDIK
Q: Does B14 bind [7]?
A: no binding

B15: CV2-57 (antibody, V domains shown)
VH: B7 VH
VL: B14 VL with I97R, F98L, P102G, D107E
Q: Does B15 bind [8]?
A: no binding

B16: CV2-54 (antibody, V domains shown)
VH: QVQLVQSGAEVKKPGSSVKVSCKASGGTFSSYTISWVRQAPGQGLEWMGGIIPIFGTANYAQNFQGRVTITADESTSTAYMELSSLRSEDTAVYYCARVSYYDSSGYYTDYWGQGTLVTVSS
VL: B14 VL with Y32F, S76N, I97E, F98Y, P102Q, V106L, D107E
Q: Does B16 bind [9]?
A: no binding

B17: CV2-53 (antibody, V domains shown)
VH: B16 VH with S30T, T33A, S35T, N63K, S100G, Y101A, T109Q, Y111L, Q114R
VL: B14 VL with I97V, F98I, P102Q, K105R, V106L, D107E
Q: Does B17 bind [10]?
A: no binding

B18: CV2-56 (antibody, V domains shown)
VH: QVQLVESGGGVVQPGNSLRLSCVASGFKFSSSAMHWVRQAPGKGLEWVAIIWFHGNTKFYGDFVKGRFTVSRDNSNNTLHLQMNSLRAEDTAVYHCARASSDYGGAFDIWGQGTMVTVSS
VL: EIVMTQSPATLSVSLGERATLSCRASQSVTSSLAWYQHKPGQAPRLLIYGASTRATGIPARFSGSGSGTEFTLTISSLQSEDFAVYFCQQYNNWPPWTFGQGTKVEVT
Q: Does B18 bind [11]?
A: no binding

B19: CV2-71 (antibody, V domains shown)
VH: EVQLLESGGGLGQPGGSLRLSCAASGFTFSNYAMSWVRQAPGKGLEWVSVISGSGGSTYYADSVKGRFTISRDNSKNTLYLQMNSLRAEDTAVYYCAKAGAVGYYDSNGYYYDVDYYYGMDVWGQGTTVTVSS
VL: QSVLTQPPSVSGAPGQRVTISCTGSSSNIGAGYDVHWYQQLPGTAPKLLIYGNSNRPSGVPDRFSGSKSGTSASLAITGLQAEDEADYYCQSYDSSLSGYVFGTGTKVTVL
Q: Does B19 bind [1]?
A: binds

B20: CV1 (antibody, V domains shown)
VH: QVQLQESGPGLVKPSETLSLTCTVSGYSISSGYYWGWIRQPPGKGLEWIGSIYHSGSTYYNPSLKSRVTISVDTSKNQFSLKLSSVTAADTAVYYCARTPLSLRLRYNWYFDLWGRGTLVTVSS
VL: not shown
notes: expressed as IgG
Q: Does B20 bind [12]?
A: no binding
